T1: Human TIGIT Protein, Fc Tag (ACRO) (human, UniProt Q495A1 22-141)
T1 construct: Bought reagent (ACRO); no catalogue number, no construct limits; also called Human TIGIT Protein, Fc TagTIGIT; not shown: Fc tag
T1 sequence (looked up): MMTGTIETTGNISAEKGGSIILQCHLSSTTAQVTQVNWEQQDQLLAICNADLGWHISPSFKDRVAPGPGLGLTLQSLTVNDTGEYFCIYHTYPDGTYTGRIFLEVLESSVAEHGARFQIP

T2: Human CTLA-4 / CD152 Protein, Fc Tag (ACRO) (human, UniProt P16410 36-161, limits assumed)
T2 construct: Bought reagent (ACRO); no catalogue number, no construct limits; not shown: Fc tag
T2 sequence (looked up): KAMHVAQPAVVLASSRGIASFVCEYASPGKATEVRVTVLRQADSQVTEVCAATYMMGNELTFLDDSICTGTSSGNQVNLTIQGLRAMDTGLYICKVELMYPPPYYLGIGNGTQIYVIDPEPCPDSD


Columns and labels:
Experiment in all cases: flow cytometry, soluble tagged antigen staining T cells that carry the construct
[1] = target: T1, Human TIGIT Protein, Fc Tag (ACRO)
[2] = target: T2, Human CTLA-4 / CD152 Protein, Fc Tag …
[3] = target: T3, Human PD-1 / PDCD1 Protein, His Tag (ACRO) (human, UniProt Q15116 25-167)
T3 construct: Bought reagent (ACRO); no catalogue number, no construct limits; also called CD279; not shown: His tag

[4] = target: T4, Human NKG2A&CD94 Protein, Fc Tag (ACRO) (human, UniProt P26715 94-233; Q13241 32-179, limits assumed)
T4 construct: Bought heterodimer reagent (ACRO) with Fc tag
T4 sequence (P26715 94-233 limits assumed, chain 1 of 2): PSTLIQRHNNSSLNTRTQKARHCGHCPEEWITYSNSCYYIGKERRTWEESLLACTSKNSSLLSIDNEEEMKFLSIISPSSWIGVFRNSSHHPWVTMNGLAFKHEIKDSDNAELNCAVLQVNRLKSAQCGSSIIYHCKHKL
T4 sequence (Q13241 32-179 limits assumed, chain 2 of 2): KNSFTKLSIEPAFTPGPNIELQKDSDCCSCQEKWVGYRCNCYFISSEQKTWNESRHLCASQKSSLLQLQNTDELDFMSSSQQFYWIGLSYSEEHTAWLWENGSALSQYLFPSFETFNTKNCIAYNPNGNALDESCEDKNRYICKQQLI

T3 sequence (Q15116 25-167 limits assumed): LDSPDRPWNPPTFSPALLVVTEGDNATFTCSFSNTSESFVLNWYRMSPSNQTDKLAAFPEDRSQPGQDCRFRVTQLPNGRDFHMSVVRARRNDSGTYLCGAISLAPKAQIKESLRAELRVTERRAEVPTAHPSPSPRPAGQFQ

| binding result [1] | binding result [2] | binding result [3] | binding result [4] | Binder |
| --- | --- | --- | --- | --- |
| binds | binds |  |  | immunosuppressive molecule of plasmid CAR19-C4TT (anti-CTLA4 scFv, linker, anti-TIGIT scFv, IgG4 hinge, CD28 transmembrane region, CD28 co-stimulatory domain), … (other, Membrane-anchored on transduced T cells that also express the anti-CD19 CAR) QVQLVESGGGVVQPGRSLRLSCAASGFTFSSYGMHWVRQAPGKGLEWVAVIWYDGSNKYYADSVKGRFTISRDNSKNTLYLQMNSLRAEDTAVFYCARAPNYIGAFDVWGQGTMVTVSSGGGGSGGGGSGGGGSDIQMTQSPSSLSASVGDRVTITCRASQGISSWLAWYQQKPEKAPKSLIYAASSLQSGVPSRFSGSGSGTDFTLTISSLQPEDFATYYCQQYNSYPPTFGQGTKVEIKGGGGSGGGGSGGGGSEVQLQQSGPGLVKPSQTLSLTCAISGDSVSSNSAAWNWIRQSPSRGLEWLGKTYYRFKWYSDYAVSVKGRITINPDTSKNQFSLQLNSVTPEDTAVFYCTRESTTYDLLAGPFDYWGQGTLVTVSSGGGGSGGGGSGGGGSDIVMTQSPDSLAVSLGERATINCKSSQTVLYSSNNKKYLAWYQQKPGQPPNLLIYWASTRESGVPDRFSGSGSGTDFTLTISSLQAEDVAVYYCQQYYSTPFTFGPGTKVEIKRESKYGPPCPPCPFWVLVVVGGVLACYSLLVTVAFIIFWVRSKRSRLLHSDYMNMTPRRPGPTRKHYQPYAPPRDFAAYRS |
|  |  | binds | binds | immunosuppressive molecule of plasmid CAR18.2-PA (anti-PD1 scFv, linker, anti-NKG2A scFv, IgG4 hinge, CD28 transmembrane region, CD28 co-stimulatory domain), … (other) QVQLVQSGVEVKKPGASVKVSCKASGYTFTNYYMYWVRQAPGQGLEWMGGINPSNGGTNFNEKFKNRVTLTTDSSTTTAYMELKSLQFDDTAVYYCARRDYRFDMGFDYWGQGTTVTVSSGGGGSGGGGSGGGGSEIVLTQSPATLSLSPGERATLSCRASKGVSTSGYSYLHWYQQKPGQAPRLLIYLASYLESGVPARFSGSGSGTDFTLTISSLEPEDFAVYYCQHSRDLPLTFGGGTKVEIKGGGGSGGGGSGGGGSEIVLTQSPATLSLSPGERATMTCSASSSVSSYIYWYQQKPGQAPRLLIYLTSNLASGIPARFSGSGSGTDFTLTISSLEPEDFATYYCQQWSGNPYTFGQGTKVEIKGSTSGSGKPGSGEGSTKGEVQLVESGGGLVKPGGSLRLSCAASGFTFSSYAMSWVRQAPGKGLEWVAEISSGGSYTYYPDSVKGRFTISRDNAKNSLYLQMNSLRAEDTAVYYCTRHGDYPRFFDVWGQGTLVTVSSESKYGPPCPPCPFWVLVVVGGVLACYSLLVTVAFIIFWVRSKRSRLLHSDYMNMTPRRPGPTRKHYQPYAPPRDFAAYRS |
|  | binds |  | binds | immunosuppressive molecule of plasmid CAR19-AC4 (anti-NKG2A scFv, linker, anti-CTLA4 scFv, IgG4 hinge, CD28 transmembrane region, CD28 co-stimulatory domain), … (other, Membrane-anchored on transduced T cells that also express the anti-CD19 CAR) EIVLTQSPATLSLSPGERATMTCSASSSVSSYIYWYQQKPGQAPRLLIYLTSNLASGIPARFSGSGSGTDFTLTISSLEPEDFATYYCQQWSGNPYTFGQGTKVEIKGSTSGSGKPGSGEGSTKGEVQLVESGGGLVKPGGSLRLSCAASGFTFSSYAMSWVRQAPGKGLEWVAEISSGGSYTYYPDSVKGRFTISRDNAKNSLYLQMNSLRAEDTAVYYCTRHGDYPRFFDVWGQGTLVTVSSGGGGSGGGGSGGGGSQVQLVESGGGVVQPGRSLRLSCAASGFTFSSYGMHWVRQAPGKGLEWVAVIWYDGSNKYYADSVKGRFTISRDNSKNTLYLQMNSLRAEDTAVFYCARAPNYIGAFDVWGQGTMVTVSSGGGGSGGGGSGGGGSDIQMTQSPSSLSASVGDRVTITCRASQGISSWLAWYQQKPEKAPKSLIYAASSLQSGVPSRFSGSGSGTDFTLTISSLQPEDFATYYCQQYNSYPPTFGQGTKVEIKESKYGPPCPPCPFWVLVVVGGVLACYSLLVTVAFIIFWVRSKRSRLLHSDYMNMTPRRPGPTRKHYQPYAPPRDFAAYRS |

— EP4663762A2 (HongKong Bioheng Biotech Limited, dated 2025)
